The record followed here is PMC10783653 (Cell reports. Physical science, 2023).

In one experiment the target is RET M918T (Homo sapiens, UniProt P07949, M918T). The experiment can be described thus: LIMS-Kinase assay, RET M918T.
The target of another experiment is EGFR L858R (Homo sapiens, UniProt P00533, L858R). The experiment is classed as biochemical. The conditions noted are these: enzyme optimization; 2.5 nM EGFR L858R, 1 μM peptide, 100 μM ATP, 60 min.

RET M918T, sequence (P07949 29-1114 M918T): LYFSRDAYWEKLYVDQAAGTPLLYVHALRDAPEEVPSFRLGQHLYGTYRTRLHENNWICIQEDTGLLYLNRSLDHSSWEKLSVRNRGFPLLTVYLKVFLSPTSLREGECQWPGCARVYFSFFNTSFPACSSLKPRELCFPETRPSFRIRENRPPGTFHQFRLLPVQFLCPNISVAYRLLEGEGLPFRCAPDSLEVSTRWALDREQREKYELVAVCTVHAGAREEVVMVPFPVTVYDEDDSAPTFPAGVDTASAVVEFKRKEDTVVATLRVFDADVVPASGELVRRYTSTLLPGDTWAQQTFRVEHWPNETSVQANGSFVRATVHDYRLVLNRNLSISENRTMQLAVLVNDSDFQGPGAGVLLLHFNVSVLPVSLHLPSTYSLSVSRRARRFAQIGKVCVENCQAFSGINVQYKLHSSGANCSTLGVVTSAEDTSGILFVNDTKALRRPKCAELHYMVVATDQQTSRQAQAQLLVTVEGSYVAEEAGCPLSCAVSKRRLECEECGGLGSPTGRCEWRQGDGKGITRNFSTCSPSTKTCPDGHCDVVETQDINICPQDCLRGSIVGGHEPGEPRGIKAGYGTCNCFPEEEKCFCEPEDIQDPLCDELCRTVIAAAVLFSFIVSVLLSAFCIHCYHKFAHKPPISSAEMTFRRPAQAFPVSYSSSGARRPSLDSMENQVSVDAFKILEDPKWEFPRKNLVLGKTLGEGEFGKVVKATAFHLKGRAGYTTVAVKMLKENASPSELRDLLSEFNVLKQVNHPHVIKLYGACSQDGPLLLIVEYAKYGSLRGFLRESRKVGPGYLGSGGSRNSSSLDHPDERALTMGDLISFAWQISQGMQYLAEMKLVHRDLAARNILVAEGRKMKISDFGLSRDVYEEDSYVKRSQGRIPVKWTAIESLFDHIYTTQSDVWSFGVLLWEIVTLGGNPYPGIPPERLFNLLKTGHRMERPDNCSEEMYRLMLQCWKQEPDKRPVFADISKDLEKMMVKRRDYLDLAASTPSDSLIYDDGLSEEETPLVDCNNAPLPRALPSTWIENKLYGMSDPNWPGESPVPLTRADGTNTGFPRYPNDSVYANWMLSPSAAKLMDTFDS

For `COc1ccc(CN2C3CC2CN(c2ccc(-c4cc(OCC(C)(C)O)cn5ncc(C#N)c45)cn2)C3)cn1` [selpercatinib, reference compound], the “potency in LIMS-Kinase assay compared to previously reported value” on RET M918T (0.7 nM vs. […]) is “more than six times higher”.
In the case of “MS-Csktide1: kinase substrate peptide, sequence KEEIYFFF”, the substrate converted entry with EGFR L858R is given as “approximately 20%”.
For “MS-Csktide2: kinase substrate peptide, sequence KEEIYFFFG”, in the experiment with RET M918T (enzyme optimization, 2.5 nM RET M918T, 1 μM peptide, 100 μM ATP, 60 min), the substrate converted entry is recorded as “Approximately 39%”.
